Assay: soluble fraction after stress (log2 fold change); higher = more stays soluble; pooled small domains, quantitative proteomics
Conditions: stress: 75 degC
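Also: 20 min heating vs room temperature control held 20 min.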

| Sequence | soluble fraction (log2) |
| --- | --- |
| HMVRSKLEIVPVPEDAVVKIAGLKRLTYQAYQNEDVPYMVYKNGYEAQSGTVFMDTDKTLTVTLEESP | -0.0399 |
| HMVSAMLLHKKEILNLLAEEPEALHFASLLRAFGGRHIKNELKQIVDDLVRSGEILRLRGNRYTLPGADN | -1.5 |
| HMVSATKAFVNGGNIVVSSPKATRVAVYNVAGQKVAEQAFAGKATIKASDFAKGIYVLKFNDNTVLKLT | -0.955 |
| HMVSDAELTSQATTAITAYPGTSVEVKEGQAHLSGTFATEADKQAAIDALKKIQDVKDVHDMATV | 0.152 |
| HMVSDSAELSAFVADVIKENAQAVADYKGGKTNVFGWLMGQIIKKSGGKATPAAAAALLKAELEK | -0.0308 |
| HMVSKQVTVNGIQYYQYTVQKSEGFYAISTKFGVTQDDIILANPSTKEGLRVGQEILIPIKT | -2.62 |
| HMVSLLDWAYKQVRRMLFSGDLPQGQKIVVAQLANQLSISPTPVKEALNRLAVEGLLEAVPRRGFQVR | -0.548 |
| HMVSQELIMLGNRIREYRKERGFSQEILAEKSGVSTNTISRIEGGQMAMSVGILQRIVKALGVDANVMLG | -2.32 |
| HMVSQKPKERELWFREQLELAGLRLDPHAISAINETLGNDTGRFPGIIDTLLSTYGAGKKLSYDDVVMFL | -0.638 |
| HMVSRAFEEETVKRAESGNQEAALFALELAIREIEHSYEKSKIIDYFVSKVRLFLDNGVSLERALGIH | 0.196 |
| HMVSRKIENPYWANKEKQHIIAEFFYPDTNKRVTASIMNDGSNRDYEEILRGYSIEQIDANTNRRLEER | 0.566 |
| HMVSSEGLASGIERMLVEFGLETDKGRRFAMWSLLYMLGSAPDLDVAFKDPRDREAARTFMDLLDQANA | -1.57 |
| HMVSSVAAISQMIDEKDRYTSEHSHRVAEYARLIGAHMGFAGEELDSLYRSALLHDIGKIAVPDAILNK | -0.627 |
| HMVSTDPVHLFNLGTANRRAGRASEAITSYRKFMEAAPQHPQVPEARAYIHDMEVLLQERQKSEQAASQLS | 0.143 |
| HMVSTSVTVTGDLNVRADSRADSDLVGALIPGQTVTRLAVLDNGWSKIRFDDGAGTVVEGYVLSEYLQADG | 0.335 |
| HMVSVEINTVERDETFRKMFTSGWKPENRIQALAVEQAKKNGLGRMSEVAGLASFRGIWKQATEQVALEA | -0.213 |
| HMVSVLDHIVGIGAKRRQSLWNHFGTIDKIKAASIDELLKAPGMNRPSAEAVYYFFEAQRQLRGK | -1.22 |
| HMVTEKNALTIEIEDLTKRFGNQRESLLPILQEVQLKHGHISDFAQQEIARLLDIHPVEVYGVVTFFSFLS | -3 |
| HMVTGSIYERKGIYYAIVSYYVDGRRKQKSVSTGLSVKGNKRRALEFLENLKRTYETKESMENMD | -3.79 |
| HMVTIEEMMDRLLTRVQRAVNMSFSEFSGEAKEKVEVIVSFLALLELVKQGAVDVLQHENFSDIRIENT | -0.661 |
| HMVTKQKKLVLTIIERSHGHLSAEEIFFRAREEMPNIALGTVYRNLNSLTEEGIVRRITLPGTSDRFDT | -2.91 |
| HMVTKTTYAYERLKREIMDGTLGQGEKLVVNAISQRYQVSPMPIREALLKLEQEGLVQSAPHRGAWVHK | -0.776 |
| HMVTNELFGTRLRAFRKEKGLTIEQLAERVGLSPNYLGDIERGKKLPSMATFIRLVNELDISADEL | -1.52 |
| HMVTQVDYGTFLTRIDEGKVKSVEIQDNQIAFTAIDEAGKENIYVTGKVNDPELVDRLLAADIEDFSQVIP | 0.0911 |

| Sequence | soluble fraction (log2) |
| --- | --- |
| HMVTTTEAAKMLLVNAGHDVIKDGLTGASWASNTMKLADADGLLASVATKPNDALPRQYAAQMIYN | 0.103 |
| HMVVANTAIKSELQNIVANENKQAPLSDQKIVDQLKQAGFDISRRTVVKYRDALGIPTSRNRKR | -0.28 |
| HMVVEGMQFDRGYLSQYMVTDNEKMVADLENPYILITDKKISNIQEILPLLESILQSSRPLLIIADD | -0.0369 |
| HMVVGYRYVTNVANAVNFRQKPSASSTIITTIPYGTRIGYVEDANSEYARVKYDNMYGYVAKFYLSNYSPP | -3.68 |
| HMVVLNQEQIKFIDHYLQVSKVRYVDVRSELTDHIATAVELKMQDEALDFYEAFKAFIAVNKSQLLQRN | -1.06 |
| HMVVNERIKKLRRSLDLTQQEFADRIGVKRNTIANYEIGRNEPIDSVLELIVREFGVSKQWLLDGTGEMF | -1.43 |
| HMVVPRSFKYEVLAHGGWAGNAQRYQTKEEALHAGLALSRRWTAVEDYRAVPSDDLPNQPAL | -0.231 |
| HMVVPSNPDELKGSFSLAEVASGYGLEVAAILEKAGWPADTDPNVKMRDAANAIGRDSTDIRNAVKALLKS | 0.156 |
| HMVVVPPPATPKPGDVTGDNKINGYDLSILLSNWKRPGATLAQGDLNKDGVVNGLDLSIMLLNWG | 0.274 |
| HMVVYDAELLLNINPGMSYEEVKEMLGDPGMIIAGNDAENSVYRWSTGGISFMGRFENGALIRKSIISP | -0.862 |
| HMVWNVEQIKRAVDQLPDGYRVVFTLYLFEGYDHREIADILGISEGGSKSQFNRAKSKLKEILTAMS | -2.19 |
| HMVWTAGEVVERIRERVGHPATIRELMQVLTIPPEDRHRFRRRIMQLVEAGELIRIRGNRYGLAD | -2.59 |
| HMVYNGYYAKSFNGYVVILNGDEKTVYEYTQIPIHLLPEDIRSSVMSGYYLENETDLYNFLENYS | -3.24 |
| HMWAVDFVLLDKDDQRIGNAVAYRDDRTKGMDEEVYRTVPEEELYASTGIQKQIFNSIYQLMAWKK | -0.0106 |
| HMWDRFGELDSAEEINRIAAAELREGDIDALKVLAEENGLDKDDVEDYIDRLIDELTTPELAAIGKLDV | 0.275 |
| HMWKQISSEAELLPAVRSVIQANPGEAEKLRNGEMAPLEFLTGLVMKKTNGMAVPQIVKTLIKKELKI | 0.0414 |
| HMWKSEAGKKIIESLAQKYNKSNAQIILRWHIQMGYIVIPGARSENHIKENINIFDFKLTNEEINNILKLN | -0.242 |
| HMWMTAQDFRNSSLPWSATTSYNEGQSVRVVDGSNTYYYIAIVKTQPGQSPTTHPTSWREVDA | -1.16 |
| HMWNLPDPVVRPEGNVTVYENFKNTVEVLNREADLVLKFLQNEFGTSANIDDTGRARLTGSFSTDRVSSVI | -0.328 |
| HMWSNTAVIDRIRQLHEEGQPISSQSVQVNHKSLYMAAIKRFRGWKRAVEAAGIDYRQIRLR | -2.29 |
| HMWWTPIILRDALFGVQRFEDFQKNLDVSRATLSSRLTRLVDEGLMEKVEYQQHPVRHEYVLTEKGR | -0.234 |
| HMYAGTWTTESGQWKYRQDDGTYAKGWLQDTDGRWYYFDANGRMLSNTATPDGYQVGEDGAWVNH | -0.338 |
| HMYAMTAEDWIVSGNRKYINDDLQGAIADYTKAIEIDPNYAAIYLVRGKAKYELKNYQGAIEDYTKAIE | -1.29 |
| HMYAPKIETIQVPQDKIREVIGTGGKVIREIVETTGAKIDIGDTGLIKVASSDGEAIRAALDWINSIVAE | 0.278 |

| Sequence | soluble fraction (log2) |
| --- | --- |
| HMYATQLLQLEEMGFFDRAENIRALRATNGNVNAAVERL | -0.202 |
| HMYDASELNKALEEAKKLDLNNYTEESSEALKNAISKAEEALLSKDKETINSALEELNKAMDSL | 0.512 |
| HMYDEAAIRKAVMTFVTDNRDERLDLAKISAVLTSKFGNINFDELGYKRFSSFIDSFPELRRNNTFVSLR | -0.883 |
| HMYDFGVILQKLRKEKGFTQEQLARLIHKESSIISRYEKGLQNPTFETVKEFAAIFNVSMDYLAG | -1.49 |
| HMYEGNEFSSTGMFREDILAITAVHPMREDAVTELLARSNESEETLEMMIDEELLRRVAYGNHNYYMRRFR | -0.611 |
| HMYEHLKALRESLGMTQAEFGESVGVAKSTYNNYEIGARDPKSDFWIAVAQRYGVTIDYLMGFSDDPKKT | -1.76 |
| HMYELSDTEWKIIEQVGLGASNKEIAASLHFSEGTIRNYLSVILDKLSLRDRTQLAILYVKMN | -1.11 |
| HMYEPPTEDEKRVLSLLATRESIVRSDVDRLLGVSQSTANRILKQMIEKYLISQEGTGKNTKYIK | -0.263 |
| HMYESAMSDLHARIMSSDDPHGEIYKMLTQSGPEAKYIQDMYNETSIDRGLHPDDDFEDIIDAMVAELDD | -0.68 |
| HMYEVVPNMKGLSYEQAATALRTAGLEPELSDSIYDDKTRPGTVLEQSPRANTKVKPGRTVYLTVNAF | 0.0171 |
| HMYFFNTFTQRLFDNPELTQEEAIRQMYPGISGVQTAEKLQENFMADVYIQAAIRQEIVVQLIR | -0.485 |
| HMYGSLGEYELAAVQWIYGKGKITTRELSSLIGKGLTLSSKTLRGLAAKGILEWHGNSKNDPSQFYSLP | -2.42 |
| HMYHADLIGLEARSTAGDKLGEVNAVYNFGAGDLIEIKMTDGNLEMLPFTRQYVPTVSIKDGFIIVQM | -1.32 |
| HMYHIYPVADNDTPKLSADRLEYSLSNALLTNKLLNIDEIKKIYNDVILDKDEDGTLELSFKS | 0.127 |
| HMYIDANTALLAKRIQAKNGFLPLSDKSTAEEIYAEFGISKKAFKKALGALYKERLVRIGDEGVVWV | -2.46 |
| HMYINVQNARTIASFRSSLWRMHRDFTNQGYITADGLKTFLEMGKLYEDAGGNDIYHSKLLPEITALEIKY | -2.84 |
| HMYKDVVVPNTVGDSEEKAYQTLSALGLVVNITYDEDASKSDRVVTSQNPTNKTIKEGESVNIVVNKQP | 0.573 |
| HMYKIDFAEGDRVIIKGGAFSGLRATVVSLHPEKGMAKIKVYMFGDRETLVDIEVSQLEKDK | -0.785 |
| HMYKTKVDIAYDMLMERITEGVYKPGEKLVITHISKELGISDIPVREAIRRLESEGYVKILPNQGAIVYD | -0.671 |
| HMYLGRKATLLSSISGEKMGNAEVLADGNLMSIYVKSLTGEPLSYGSTVLIIKHSEDQNFYLVQN | -3.54 |
| HMYLQKGISNGKVYLSIVHGYRDPVTKKVRRKTIRSLGYLEDLEKQYADPIKHFEAVVAKMNEEEALE | -1.88 |
| HMYLSNPTYRGDSLVDALTQIGVDASFASRRDLARKNGIENYTGSAKQNLELLQLLREGRLR | 0.402 |
